Experimental findings from the supplement of paper PMC10899765 are described below.

Common to all, as to conditions: 20 nM; 72 h
In data set [1] the test system is MCF10A. The data set is described as follows: percent viability (nuclei count relative to siNT); higher = more viable cells. Here is the method:
(§1)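 After 72 h, cells were fixed and stained with Hoechst and anti-fibrillarin, and nucleoli per nucleus were counted with CellProfiler. Values are plate-adjusted percent effect for the one-nucleolus and 5+ nucleoli phenotypes, normalised to siNT (0%) and to the positive controls siNOL11 or siKIF11 (100%), as the mean of biological triplicates. Percent viability is the nuclei count relative to siNT.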

In data set [2] the test system is MCF10A. Description: 5+ nucleoli phenotype percent effect (relative to siNT 0% and siKIF11 100%); higher = more cells with five or more nucleoli. Here is the method:
as §1

In data set [3] the test system is MCF10A. The data set is described as follows: one-nucleolus phenotype percent effect (relative to siNT 0% and siNOL11 100%); higher = more cells with one nucleolus (ribosome biogenesis inhibition). The method, then: as §1

On to AGCAGCAUUGUACAGGGCUAUCA [hsa-miR-107], for which, in data set [1], the percent viability worked out at 22.7%. The “5+ nucleoli phenotype percent effect” value in data set [2] is -26.1%. Besides, in data set [3], the “one-nucleolus phenotype percent effect” value was 29.9%.
With AGAAGGGGUGAAAUUUAAACGU [hsa-miR-3179], the percent viability in data set [1] turned out to be 18.1%. Also, the “5+ nucleoli phenotype percent effect” value in data set [2] is -30.9%. Also, in data set [3], the “one-nucleolus phenotype percent effect” value turned out to be 60.8%.
With “CCUCACCACCCCUUCUGCCUGCA [hsa-miR-6511b-3p]”, the percent viability in data set [1] was 69.7%. Moreover, the “5+ nucleoli phenotype percent effect” value in data set [2] worked out at 22.9%. The “one-nucleolus phenotype percent effect” value in data set [3] was -22.7%.
The corresponding values for ACUCCAGCCCCACAGCCUCAGC [hsa-miR-766-3p] are 39%, -19.8% and 15.5%.
The corresponding values for “UAGUCCCUUCCUUGAAGCGGUC [hsa-miR-2114-5p]” are 25.2%, -46% and 43.8%.
The corresponding values for UGUAGGAACAGUUGAAUUUUGGCU [hsa-miR-8065] are 58.9%, 19.8% and -24.6%.
Take AACAUAGAGGAAAUUCCACGU [hsa-miR-376c-3p]: the percent viability in data set [1] is 99.8%. Further, the “5+ nucleoli phenotype percent effect” value in data set [2] came to 55.4%. The “one-nucleolus phenotype percent effect” value in data set [3] is -18.9%.
In the same order, the values of “UUCACCCCUCUCACCUAAGCAG [hsa-miR-6802-3p]” are 63.6%, 15.5% and -11.2%.
In the same order, the values of ACUGUAGUAUGGGCACUUCCAG [hsa-miR-20b-3p] are 74%, -11.6% and 1.32%.
In the same order, the values of AUCGGGCCCUCGGCGCCGG [hsa-miR-3181] are 31.6%, -23.1% and 8.67%.
Consider AAUCCACGCUGAGCUUGGCAUC [hsa-miR-5092], for which, in data set [1], the percent viability came out at 22.3%. Also, the “5+ nucleoli phenotype percent effect” value in data set [2] was -4.16%. Moreover, the “one-nucleolus phenotype percent effect” value in data set [3] stood at 14.7%.
With “UUCGGUAUACUUUGUGAAUUGG [hsa-miR-4798-5p]”, in data set [1], the percent viability stood at 78.1%. Further, the “5+ nucleoli phenotype percent effect” value in data set [2] is -0.701%. Besides, in data set [3], the “one-nucleolus phenotype percent effect” value is 0.862%.
Take GAAAAUGAUGAGUAGUGACUGAUG [hsa-miR-3662]: in data set [1], the percent viability came out at 88.3%. Moreover, in data set [2], the “5+ nucleoli phenotype percent effect” value was 57.8%. For the same sequence, the “one-nucleolus phenotype percent effect” value in data set [3] is -17.5%.
Regarding UUCAUUCGGCUGUCCAGAUGUA [hsa-miR-1298], the percent viability in data set [1] turned out to be 130%. For the same sequence, in data set [2], the “5+ nucleoli phenotype percent effect” value was found to be 33.4%. For the same sequence, the “one-nucleolus phenotype percent effect” value in data set [3] is -24.3%.
The corresponding values for ACUUGUAUGCUAGCUCAGGUAG [hsa-miR-643] are 165%, 68.8% and -31.1%.
In the same order, the values of “CACUGUAGGUGAUGGUGAGAGUGGGCA [hsa-miR-1183]” are 66.4%, 17.5% and 0.199%.
As for UGUAAACAUCCUCGACUGGAAG [hsa-miR-30a-5p], the percent viability in data set [1] came to 47.2%. Also, the “5+ nucleoli phenotype percent effect” value in data set [2] amounted to 9.35%. In data set [3], the “one-nucleolus phenotype percent effect” value was -3.76%.
In the same order, the values of UGACAACUAUGGAUGAGCUCU [hsa-miR-549a] are 77.8%, 15.5% and -18.5%.
As for UGCCCUCCUUUCUUCCCUC [hsa-miR-4290], the percent viability in data set [1] stood at 21.6%. For the same sequence, the “5+ nucleoli phenotype percent effect” value in data set [2] was -8.55%. For the same sequence, the “one-nucleolus phenotype percent effect” value in data set [3] was -1.5%.
In the same order, the values of “GGAGGGGUCCCGCACUGGGAGG [hsa-miR-1914-3p]” are 126%, 46.6% and -23.7%.
As for “UCUGCCAUCCUCCCUCCCCUAC [hsa-miR-4769-3p]”, the percent viability in data set [1] was 87%. In addition, the “5+ nucleoli phenotype percent effect” value in data set [2] is 30.9%. Also, the “one-nucleolus phenotype percent effect” value in data set [3] was -18%.
In the same order, the values of “UGACGCCCCUUCUGAUUCUGCCU [hsa-miR-6786-3p]” are 50.9%, -4.1% and 0.306%.
The corresponding values for GUGUCUUUUGCUCUGCAGUCA [hsa-miR-511] are 55.3%, -3.71% and -6.61%.
In the same order, the values of UGUCUACAUUAAUGAAAAGAGC [hsa-miR-3618] are 66.2%, -1.03% and 16.7%.
